T1: cynomolgus monkey FcγRIIa2 extracellular domain, His-tagged (cynomolgus monkey)
T1 construct: also called cyno FcgRIIa2
T1 chain: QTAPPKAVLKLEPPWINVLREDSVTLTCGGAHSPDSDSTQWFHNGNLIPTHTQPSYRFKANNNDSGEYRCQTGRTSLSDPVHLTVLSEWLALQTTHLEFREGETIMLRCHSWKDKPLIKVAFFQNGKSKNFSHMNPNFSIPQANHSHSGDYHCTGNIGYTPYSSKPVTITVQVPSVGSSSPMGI

T2: cynomolgus monkey FcγRIIIaS extracellular domain, His-tagged (cynomolgus monkey, UniProt Q8SPW2 21-206 at identity 1.00))
T2 construct: also called cyno FcgRIIIaS
T2 chain: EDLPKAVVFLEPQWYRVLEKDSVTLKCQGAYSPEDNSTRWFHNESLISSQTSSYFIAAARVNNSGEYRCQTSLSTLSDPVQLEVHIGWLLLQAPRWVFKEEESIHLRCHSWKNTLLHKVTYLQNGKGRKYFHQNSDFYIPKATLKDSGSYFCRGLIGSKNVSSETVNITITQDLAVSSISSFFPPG

T3: cynomolgus monkey FcγRIIa1 extracellular domain, His-tagged (cynomolgus monkey)
T3 construct: also called cyno FcgRIIa1
T3 chain: T1 chain with T95P, A121T, K127I, S128A, N130K, N135D, Q142R

T4: cynomolgus monkey FcγRIIa3 extracellular domain, His-tagged (cynomolgus monkey)
T4 construct: also called cyno FcgRIIa3
T4 chain: T1 chain with K127I, N130K, H133P, Q142R

T5: cynomolgus monkey FcγRIIb extracellular domain, His-tagged (cynomolgus monkey)
T5 construct: also called cyno FcgRIIb
T5 chain: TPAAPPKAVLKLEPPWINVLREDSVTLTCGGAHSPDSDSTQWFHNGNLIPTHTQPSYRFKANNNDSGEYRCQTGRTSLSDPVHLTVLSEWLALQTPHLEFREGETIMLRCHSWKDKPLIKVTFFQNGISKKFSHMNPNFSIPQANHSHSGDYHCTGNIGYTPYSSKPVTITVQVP

T6: human FcγRIIb extracellular domain with C-terminal His-tag (human, UniProt P31994 43-217)
T6 construct: also called human FcgRIIb; not shown: His-tag added to C-terminus
T6 sequence: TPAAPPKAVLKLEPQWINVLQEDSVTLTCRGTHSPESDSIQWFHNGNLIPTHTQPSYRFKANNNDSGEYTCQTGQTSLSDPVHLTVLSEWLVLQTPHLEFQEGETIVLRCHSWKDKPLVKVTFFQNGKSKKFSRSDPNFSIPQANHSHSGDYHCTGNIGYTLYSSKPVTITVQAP

T7: cynomolgus monkey FcγRIIa3 extracellular domain with C-terminal His-tag (cynomolgus monkey)
T7 construct: also called cyno FcgRIIa3; cynoFcγRIIa3; not shown: His-tag added to the C-terminus
T7 chain: T1 chain with K127I, N130K, H133P, Q142R

B1: M103205H795-SG167 / M103202L889-SK1 (antibody, human IgG1, kappa, name in EU numbering)
heavy: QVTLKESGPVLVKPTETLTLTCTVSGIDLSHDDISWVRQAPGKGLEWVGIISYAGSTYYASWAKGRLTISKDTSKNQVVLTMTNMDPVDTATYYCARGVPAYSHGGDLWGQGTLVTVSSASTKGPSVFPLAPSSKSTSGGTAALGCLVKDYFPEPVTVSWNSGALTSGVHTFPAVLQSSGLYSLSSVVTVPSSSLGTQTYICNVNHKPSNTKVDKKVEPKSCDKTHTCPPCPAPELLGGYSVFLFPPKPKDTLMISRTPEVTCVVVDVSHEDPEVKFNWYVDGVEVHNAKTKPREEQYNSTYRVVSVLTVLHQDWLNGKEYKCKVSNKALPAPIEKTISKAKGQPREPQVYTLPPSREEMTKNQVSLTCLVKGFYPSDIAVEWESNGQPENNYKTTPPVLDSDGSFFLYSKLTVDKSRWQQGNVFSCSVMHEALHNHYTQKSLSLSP
light: DIVMTQSPATLSLSPGERATLSCTSSQSVYHANWLSWFQQKPGQPPKLLIYWASTLAYGVPSRFSGSGSGTDFTLTISSLQPEDAATYYCAGGYGGGRYAFGQGTKVEIKRTVAAPSVFIFPPSDEQLKSGTASVVCLLNNFYPREAKVQWKVDNALQSGNSQESVTEQDSKDSTYSLSSTLTLSKADYEKHKVYACEVTHQGLSSPVTKSFNRGEC
notes: also called P238Y
B2: M103205H795-MY001 / M103202L889-SK1 (antibody, human IgG1, kappa, name in EU numbering)
heavy: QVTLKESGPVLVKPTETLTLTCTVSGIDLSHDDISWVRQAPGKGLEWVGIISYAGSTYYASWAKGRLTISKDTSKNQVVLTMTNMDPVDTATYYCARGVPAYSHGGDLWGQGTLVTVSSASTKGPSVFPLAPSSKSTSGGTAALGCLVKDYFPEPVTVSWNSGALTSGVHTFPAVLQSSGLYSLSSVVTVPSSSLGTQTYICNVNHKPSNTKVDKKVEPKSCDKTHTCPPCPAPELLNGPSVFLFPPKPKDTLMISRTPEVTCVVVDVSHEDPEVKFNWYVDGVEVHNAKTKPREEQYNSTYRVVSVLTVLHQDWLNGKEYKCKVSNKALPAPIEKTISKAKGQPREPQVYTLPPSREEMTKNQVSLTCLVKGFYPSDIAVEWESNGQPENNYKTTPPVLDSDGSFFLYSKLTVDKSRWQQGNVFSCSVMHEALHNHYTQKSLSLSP
light: B1 light
notes: also called G236N
B3: M103205H795-SG171 / M103202L889-SK1 (antibody, human IgG1, kappa, name in EU numbering)
heavy: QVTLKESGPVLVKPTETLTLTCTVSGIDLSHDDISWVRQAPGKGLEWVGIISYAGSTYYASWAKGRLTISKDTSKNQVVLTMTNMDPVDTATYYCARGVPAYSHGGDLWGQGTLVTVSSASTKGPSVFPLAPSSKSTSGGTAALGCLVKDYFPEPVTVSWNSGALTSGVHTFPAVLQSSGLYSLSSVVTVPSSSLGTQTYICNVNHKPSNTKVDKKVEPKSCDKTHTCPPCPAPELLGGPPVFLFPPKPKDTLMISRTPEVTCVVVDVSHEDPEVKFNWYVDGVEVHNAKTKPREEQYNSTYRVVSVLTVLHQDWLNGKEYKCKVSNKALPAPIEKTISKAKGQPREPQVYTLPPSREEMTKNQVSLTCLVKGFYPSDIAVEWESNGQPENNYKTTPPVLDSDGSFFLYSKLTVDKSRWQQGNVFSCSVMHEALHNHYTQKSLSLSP
light: B1 light
notes: also called S239P
B4: M103205H795-SG175 / M103202L889-SK1 (antibody, human IgG1, kappa, name in EU numbering)
heavy: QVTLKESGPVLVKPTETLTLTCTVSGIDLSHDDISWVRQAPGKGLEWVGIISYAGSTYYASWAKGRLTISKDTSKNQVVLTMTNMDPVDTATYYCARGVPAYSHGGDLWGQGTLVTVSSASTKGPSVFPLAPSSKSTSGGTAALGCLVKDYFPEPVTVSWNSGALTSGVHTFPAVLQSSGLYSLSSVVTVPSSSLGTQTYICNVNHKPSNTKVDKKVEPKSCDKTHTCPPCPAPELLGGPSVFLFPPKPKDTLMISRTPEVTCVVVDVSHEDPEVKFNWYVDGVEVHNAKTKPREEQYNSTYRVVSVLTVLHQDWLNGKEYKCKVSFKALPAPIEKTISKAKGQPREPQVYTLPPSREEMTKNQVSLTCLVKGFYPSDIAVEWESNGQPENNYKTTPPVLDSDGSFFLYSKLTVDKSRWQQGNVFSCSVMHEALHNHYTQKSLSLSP
light: B1 light
notes: also called N325F
B5: M103205H795-SG166 / M103202L889-SK1 (antibody, human IgG1, kappa, name in EU numbering)
heavy: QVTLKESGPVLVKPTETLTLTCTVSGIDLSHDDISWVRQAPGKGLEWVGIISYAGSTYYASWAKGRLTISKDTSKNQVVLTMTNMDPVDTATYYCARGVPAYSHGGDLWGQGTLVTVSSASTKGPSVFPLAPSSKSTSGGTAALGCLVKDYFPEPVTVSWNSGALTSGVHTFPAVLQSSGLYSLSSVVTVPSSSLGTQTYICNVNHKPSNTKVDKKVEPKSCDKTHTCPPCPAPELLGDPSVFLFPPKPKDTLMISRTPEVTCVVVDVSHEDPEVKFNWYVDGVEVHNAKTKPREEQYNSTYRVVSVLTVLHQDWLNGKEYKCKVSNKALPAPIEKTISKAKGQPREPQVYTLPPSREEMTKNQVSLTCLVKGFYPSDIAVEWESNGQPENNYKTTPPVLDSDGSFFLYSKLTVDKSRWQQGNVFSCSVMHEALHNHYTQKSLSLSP
light: B1 light
notes: also called G237D
B6: M103205H795-SG165 / M103202L889-SK1 (antibody, human IgG1, kappa, name in EU numbering)
heavy: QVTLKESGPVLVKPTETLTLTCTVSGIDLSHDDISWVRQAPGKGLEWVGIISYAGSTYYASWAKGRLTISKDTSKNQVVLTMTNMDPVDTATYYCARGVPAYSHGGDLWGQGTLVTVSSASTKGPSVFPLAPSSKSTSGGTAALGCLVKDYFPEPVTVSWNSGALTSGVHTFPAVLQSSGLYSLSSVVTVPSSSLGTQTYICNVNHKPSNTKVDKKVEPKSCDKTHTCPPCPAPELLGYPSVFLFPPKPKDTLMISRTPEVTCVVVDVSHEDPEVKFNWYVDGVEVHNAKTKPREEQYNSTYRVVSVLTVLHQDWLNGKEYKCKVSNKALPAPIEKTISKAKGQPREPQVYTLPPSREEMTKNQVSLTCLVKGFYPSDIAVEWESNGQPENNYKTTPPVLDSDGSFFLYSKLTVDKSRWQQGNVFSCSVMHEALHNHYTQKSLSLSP
light: B1 light
notes: also called G237Y
B7: M103205H795-MY205/M103202L889-SK1 (antibody, human IgG1, kappa)
heavy: QVTLKESGPVLVKPTETLTLTCTVSGIDLSHDDISWVRQAPGKGLEWVGIISYAGSTYYASWAKGRLTISKDTSKNQVVLTMTNMDPVDTATYYCARGVPAYSHGGDLWGQGTLVTVSSASTKGPSVFPLAPSSKSTSGGTAALGCLVKDYFPEPVTVSWNSGALTSGVHTFPAVLQSSGLYSLSSVVTVPSSSLGTQTYICNVNHKPSNTKVDKKVEPKSCDKTHTCPPCPAPELLNGPSVFLFPPKPKDTLMISRTPEVTCVVVDVSDEDPEVKFNWYVDGVEVHNAKTKPREELYNSTYRVVSVLTVLHQDWLNGKEYKCKVSNKALPKPIEKTISKAKGQPREPQVYTLPPSREEMTKNQVSLTCLVKGFYPSDIAVEWESNGQPENNYKTTPPVLDSDGSFFLYSKLTVDKSRWQQGNVFSCSVMHEALHNHYTQKSLSLSP
light: B1 light
notes: also called MS1032LO06-MY205
B8: M103205H795-MY201/M103202L889-SK1 (antibody, human IgG1, kappa)
heavy: B7 heavy with L297Q
light: B1 light
notes: also called MS1032LO06-MY201
B9: M103205H795-MY201/M103202L889-SK1 (antibody, human IgG1, kappa)
heavy: B7 heavy with L297Q
light: B1 light
notes: Fc variant of MS1032LO06-SG1; also called MS1032LO06-MY201

Changes are numbered by the printed parent chain. In names and notes the source's numbering stands.

The first assay concerns the target T1, cynomolgus monkey FcγRIIa2 …. Description: SPR (Biacore), 25C, FcgR bound per antibody captured. As to the method:
(§1) In the next step, cross-reactivity of these substitutions to cynoFcγRs was evaluated.
(§2) The value of the amount of FcγR binding was obtained by dividing the amount of FcγR bound by the amount of each antibody captured.
Consider B1, for which the “Binding to cynoFcgRs (SG1 = 100)” value was determined as 14.
Take B2: the “Binding to cynoFcgRs (SG1 = 100)” value was 86.
As to B3, the “Binding to cynoFcgRs (SG1 = 100)” value was 20.
For the molecule B4, the “Binding to cynoFcgRs (SG1 = 100)” value turned out to be 13.
On to B5, for which the “Binding to cynoFcgRs (SG1 = 100)” value came out at 10.
Regarding B6, the “Binding to cynoFcgRs (SG1 = 100)” value is 17.

The target in a further assay is T2, cynomolgus monkey FcγRIIIaS …. The assay is described as above. How it is done:
as §1, §2
With B1, the “Binding to cynoFcgRs (SG1 = 100)” value was 14.
Regarding B2, the “Binding to cynoFcgRs (SG1 = 100)” value stood at 15.
On the same count and under the same terms, in the case of B5 it was 5; in that of B6, 7.

A further assay addresses T3, cynomolgus monkey FcγRIIa1 …. The assay is described as above. As to the method:
as §1, §2
For the molecule B1, the “Binding to cynoFcgRs (SG1 = 100)” value was 18.
The same measure, in the same setting: the result for B2 reads 83; that for B3, 17; that for B4, 13.
For B5, the “Binding to cynoFcgRs (SG1 = 100)” value stood at 10.
Still for that read-out and setting: in the case of B6 it was 18.

Another assay deals with T4, cynomolgus monkey FcγRIIa3 …. The description is as above. How it is done: as §1, §2
In the case of B1, the “Binding to cynoFcgRs (SG1 = 100)” value worked out at 38.
Same read-out and setting: the result for B2 reads 62; that for B3, 18; that for B4, 17.
Same read-out and setting: the result for B5 reads 17; that for B6, 30.

In the next assay the target is T5, cynomolgus monkey FcγRIIb extracellular …. The assay is described as above. As to the method: as §1, §2
For the molecule B1, the “Binding to cynoFcgRs (SG1 = 100)” value is 22.
B2: the “Binding to cynoFcgRs (SG1 = 100)” value is 85.
The same measure, in the same setting: the result for B3 reads 20.
For the molecule B4, the “Binding to cynoFcgRs (SG1 = 100)” value worked out at 14.
B6: the “Binding to cynoFcgRs (SG1 = 100)” value came to 30.

For another assay, the target named is T6, human FcγRIIb extracellular domain with …. Description: SPR Biacore, antibody captured, FcgR analyte. As to the method:
(§3) The kinetic analysis of interactions between these antibodies and FcγR was carried out using BIACORE® T200 or BIACORE® 4000 (GE Healthcare). HBS-EP+ (GE Healthcare) was used as the running buffer, and the measurement temperature was set to 25° C. […] After the measurement, the antibody captured on the chip was washed off by allowing reaction with 10 mM glycine-HCl, pH1.5 and 25 mM NaOH so that the chip was regenerated and used repeatedly. The sensorgrams obtained as measurement results were analyzed by the 1:1 Langmuir binding model using the BIACORE® Evaluation Software to calculate the binding rate constant ka (L/mol/s) and dissociation rate constant kd (1/s), and the dissociation constant KD (mol/L) was calculated from these values. […] Regarding such interactions, KD values were calculated using the following 1:1 binding model described in BIACORE® T100 Software Handbook BR1006-48 Edition AE.
For orientation: Surface plasmon resonance follows binding to a sensor surface in real time, without labels.
For the molecule B7, the “KD fold (SG1 = 1)” value is 8.7 fold.
As to B8, the “KD fold (SG1 = 1)” value worked out at 4.7 fold.

The next assay addresses T8, cynomolgus monkey FcγRIIIaS extracellular domain with C-terminal His-tag (cynomolgus monkey, UniProt A3RFZ7 21-206 (rhesus entry)).
T8 construct: also called cyno FcgRIIIaS; cynoFcγRIIIaS; not shown: His-tag added to C-terminus
In words: SPR Biacore, antibody captured, FcgR analyte. How it is done:
as §3
In the case of B7, the “KD fold (SG1 = 1)” value turned out to be 0.08 fold.

A further assay deals with T7, cynomolgus monkey FcγRIIa3 …. In words: SPR (BIACORE), antibody captured, FcgR analyte. As to the method: as §3
One may read the Kd as the concentration at which binding is half-saturated. As to B9, the Kd was 5.9 µM.
